Consider three molecules from PMC8068247, “Innovative and Highly Sensitive Detection of Clostridium perfringens Enterotoxin Based on Receptor Interaction and Monoclonal Antibodies” (Toxins, 2021).

Like-named read-outs stand apart in the source and are kept apart here.

In assay [1] the target is Clostridium perfringens enterotoxin (CPE) (Clostridium perfringens) (UniProt P01558). As to conditions: cited from earlier work.
The target is the same in assay [2]. Particulars: cited from earlier work. The source holds these as a separate data set.
In assay [3] the target is T1, recombinant Clostridium perfringens enterotoxin (CPE) (aa 26–319, wild type) (Clostridium perfringens, UniProt P01558 26-319).
T1 construct: also called CPE 26–319; holo-CPE
T1 sequence: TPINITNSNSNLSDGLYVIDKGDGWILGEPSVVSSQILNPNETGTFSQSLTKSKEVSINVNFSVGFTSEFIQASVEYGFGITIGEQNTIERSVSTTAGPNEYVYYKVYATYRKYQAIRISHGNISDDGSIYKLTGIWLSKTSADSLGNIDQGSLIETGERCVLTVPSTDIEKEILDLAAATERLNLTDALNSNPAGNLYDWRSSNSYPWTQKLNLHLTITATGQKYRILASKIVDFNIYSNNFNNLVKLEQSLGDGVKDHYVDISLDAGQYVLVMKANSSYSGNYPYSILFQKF
Put plainly: SPR; […], multi-cycle, 120 s association, 1200 s dissociation; HBS-EP+ pH 7.4, 25 °C; Biacore T200; 1:1 Langmuir fit. Particulars: both partners purified. (In SPR one partner is held on a chip, and binding of the other changes the refractive index at the surface.)

As a reminder, the Kd is the free concentration of one partner at which half of the binding sites on the other are occupied at equilibrium, for simple one-to-one binding. Consider claudin-4 (from UniProt O35054), for which the equilibrium dissociation constant (Kd) in assay [1] was 9 nM.
In the case of claudin-4 (from UniProt O14493), the dissociation constant (Kd) in assay [2] was 3.4 nM.

B1: GST human claudin-4 fusion protein (GST-ShCLDN4H8) (receptor)
chain: MASMGLQVMGIALAVLGWLAVMLCCALPMWRVTAFIGSNIVTSQTIWEGLWMNCVVQSTGQMQCKVYDSLLALPQDLQAARALVIISIIVAALGVLLSVVGGKCTNCLEDESAKAKTMIVAGVVFLLAGLMVIVPVSWTAHNIIQDFYNPLVASGQKREMGASLYVGWAASGLLLLGGGLLCCNCPPRTDKPYSAKYSAARSAAASNYV
Usually koff stands for the first-order rate constant of dissociation. The term kon denotes a measure of how fast the partners come together. With B1, in assay [3], the Kd is 0.38 nM, the dissociation rate constant (koff) came out at 0.00021 s⁻¹ and the on-rate constant (kon) was found to be 560000 M⁻¹ s⁻¹.
